Results: US20060257938A1, “Method of screening for drugs that block ligand binding to a lipid binding protein” (priority 2005, published 2006)
Where “and” joins values, the source holds several entries; their conditions need not be identical. Identical values can stand only once.

B1: 72T 73V 74N (protein, listed as Rattus norvegicus)
chain: AFDGTWKVDRNENYEKFMEKMGINVVKRKLGAHDNLKLTITQEGNKFTVKESSNFRNIDVVFELGVDFAYSTVNGTELTGTWTMEGNKLVGKFKRVDNGKELIAVREISGNELIQTYTYEGVEAKRIFKKE
modifications: PEPTIDE (1)...(131) wild-type rat intestinal fatty acid binding protein
B2: 72T 73V 74A (protein, listed as Rattus norvegicus)
chain: AFDGTWKVDRNENYEKFMEKMGINVVKRKLGAHDNLKLTITQEGNKFTVKESSNFRNIDVVFELGVDFAYSTVAGTELTGTWTMEGNKLVGKFKRVDNGKELIAVREISGNELIQTYTYEGVEAKRIFKKE
modifications: PEPTIDE (1)...(131) wild-type rat intestinal fatty acid binding protein
B3: 18I 31Y 73V 72A (protein, listed as Rattus norvegicus)
chain: AFDGTWKVDRNENYEKFIEKMGINVVKRKLYAHDNLKLTITQEGNKFTVKESSNFRNIDVVFELGVDFAYSAVDGTELTGTWTMEGNKLVGKFKRVDNGKELIAVREISGNELIQTYTYEGVEAKRIFKKE
modifications: PEPTIDE (1)...(131) wild-type rat intestinal fatty acid binding protein
B4: 18I 31I 55M 73V 72A (protein, listed as Rattus norvegicus)
chain: AFDGTWKVDRNENYEKFIEKMGINVVKRKLIAHDNLKLTITQEGNKFTVKESSNMRNIDVVFELGVDFAYSAVDGTELTGTWTMEGNKLVGKFKRVDNGKELIAVREISGNELIQTYTYEGVEAKRIFKKE
modifications: PEPTIDE (1)...(131) wild-type rat intestinal fatty acid binding protein
B5: 18V 31A 73F 72A (protein, listed as Rattus norvegicus)
chain: AFDGTWKVDRNENYEKFVEKMGINVVKRKLAAHDNLKLTITQEGNKFTVKESSNFRNIDVVFELGVDFAYSAFDGTELTGTWTMEGNKLVGKFKRVDNGKELIAVREISGNELIQTYTYEGVEAKRIFKKE
modifications: PEPTIDE (1)...(131) wild-type rat intestinal fatty acid binding protein
B6: 72A 73W 74V (protein, listed as Rattus norvegicus)
chain: AFDGTWKVDRNENYEKFMEKMGINVVKRKLGAHDNLKLTITQEGNKFTVKESSNFRNIDVVFELGVDFAYSAWVGTELTGTWTMEGNKLVGKFKRVDNGKELIAVREISGNELIQTYTYEGVEAKRIFKKE
modifications: PEPTIDE (1)...(131) wild-type rat intestinal fatty acid binding protein
B7: 18I 31A 73F 72A (protein, listed as Rattus norvegicus)
chain: AFDGTWKVDRNENYEKFIEKMGINVVKRKLAAHDNLKLTITQEGNKFTVKESSNFRNIDVVFELGVDFAYSAFDGTELTGTWTMEGNKLVGKFKRVDNGKELIAVREISGNELIQTYTYEGVEAKRIFKKE
modifications: PEPTIDE (1)...(131) wild-type rat intestinal fatty acid binding protein
B8: 72V 73W 74N (protein, listed as Rattus norvegicus)
chain: AFDGTWKVDRNENYEKFMEKMGINVVKRKLGAHDNLKLTITQEGNKFTVKESSNFRNIDVVFELGVDFAYSVWNGTELTGTWTMEGNKLVGKFKRVDNGKELIAVREISGNELIQTYTYEGVEAKRIFKKE
modifications: PEPTIDE (1)...(131) wild-type rat intestinal fatty acid binding protein
B9: 72A 73W 74A (protein, listed as Rattus norvegicus)
chain: AFDGTWKVDRNENYEKFMEKMGINVVKRKLGAHDNLKLTITQEGNKFTVKESSNFRNIDVVFELGVDFAYSAWAGTELTGTWTMEGNKLVGKFKRVDNGKELIAVREISGNELIQTYTYEGVEAKRIFKKE
modifications: PEPTIDE (1)...(131) wild-type rat intestinal fatty acid binding protein
B10: 72A 73P 74V (protein, listed as Rattus norvegicus)
chain: AFDGTWKVDRNENYEKFMEKMGINVVKRKLGAHDNLKLTITQEGNKFTVKESSNFRNIDVVFELGVDFAYSAPVGTELTGTWTMEGNKLVGKFKRVDNGKELIAVREISGNELIQTYTYEGVEAKRIFKKE
modifications: PEPTIDE (1)...(131) wild-type rat intestinal fatty acid binding protein
B11: 72V 73W 74S (protein, listed as Rattus norvegicus)
chain: AFDGTWKVDRNENYEKFMEKMGINVVKRKLGAHDNLKLTITQEGNKFTVKESSNFRNIDVVFELGVDFAYSVWSGTELTGTWTMEGNKLVGKFKRVDNGKELIAVREISGNELIQTYTYEGVEAKRIFKKE
modifications: PEPTIDE (1)...(131) wild-type rat intestinal fatty acid binding protein
B12: 18V 31A 73W 72A (protein, listed as Rattus norvegicus)
chain: AFDGTWKVDRNENYEKFVEKMGINVVKRKLAAHDNLKLTITQEGNKFTVKESSNFRNIDVVFELGVDFAYSAWDGTELTGTWTMEGNKLVGKFKRVDNGKELIAVREISGNELIQTYTYEGVEAKRIFKKE
modifications: PEPTIDE (1)...(131) wild-type rat intestinal fatty acid binding protein
B13: 72G 73F 74E (protein, listed as Rattus norvegicus)
chain: AFDGTWKVDRNENYEKFMEKMGINVVKRKLGAHDNLKLTITQEGNKFTVKESSNFRNIDVVFELGVDFAYSGFEGTELTGTWTMEGNKLVGKFKRVDNGKELIAVREISGNELIQTYTYEGVEAKRIFKKE
modifications: PEPTIDE (1)...(131) wild-type rat intestinal fatty acid binding protein

Key:
Format in all cases: binding
[1] = Probe fluorescence ratio response to palmitic acid relative to ADIFAB2; conditions: response relative to ADIFAB2
Outline: (§1)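 Each fatty acid's response was expressed relative to ADIFAB2, the rI-FABP-L72A probe, as ΔR/ΔRreference. ΔR is the change in the background-corrected two-wavelength intensity ratio R=Fλ1/Fλ2 from its analyte-free baseline R0. Emission was read near about 420-480 nm for unbound and about 495-580 nm for FFA-bound probe.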

[2] = Probe fluorescence ratio response to linolenic acid relative to ADIFAB2; conditions: response relative to ADIFAB2
Outline: as §1

[3] = Probe fluorescence ratio response to palmitoleic acid relative to ADIFAB2; conditions: response relative to ADIFAB2
Outline: as §1

[4] = Probe fluorescence ratio response to arachidonic acid relative to ADIFAB2; conditions: arachidonic acid; response relative to ADIFAB2
Outline: as §1

[5] = Probe fluorescence ratio response to linoleic acid relative to ADIFAB2; conditions: response relative to ADIFAB2
Outline: as §1

[6] = Probe fluorescence ratio response to stearic acid relative to ADIFAB2; conditions: response relative to ADIFAB2
Outline: as §1

[7] = Probe fluorescence ratio response to oleic acid relative to ADIFAB2; conditions: response relative to ADIFAB2
Outline: as §1

Molecule | DR/DR PA [1] | DR/DR LNA [2] | DR/DR POA [3] | DR/DR AA [4] | DR/DR LA [5] | DR/DR SA [6] | DR/DR OA [7]
B1 | 2.250 | 2.362 | 2.816 | 2.484 | 2.407 | 1.942 | 2.491
B2 | 2.362 | 2.597 | 3.011 | 2.180 | 2.435 | 1.146 | 1.950
B3 | 1.615 | 2.176 | 2.088 | 1.801 | 2.242 | 1.047 | 1.818
B4 | 1.883 | 2.408 | 2.478 | 1.710 | 1.981 | 0.502 | 1.188
B5 | 1.510 | 2.036 | 2.677 | 1.142 | 1.527 | 0.375 | 0.828
B6 | 2.525 | 2.752 | 3.856 | 1.768 | 2.338 | 0.602 | 1.574
B7 | 1.515 and 1.372 | 2.318 and 2.203 | 2.730 and 2.522 | 1.314 and 1.296 | 1.732 and 1.652 | 0.404 and 0.406 | 0.950 and 0.995
B8 | 2.229 | 2.384 | 3.507 | 1.191 | 1.726 | 0.468 | 1.146
B9 | 1.942 | 2.093 | 3.016 | 0.892 | 1.466 | 0.330 | 0.933
B10 | 2.406 | 2.845 | 3.613 | 2.354 | 2.735 | 1.178 | 2.187
B11 | 1.789 | 2.044 | 2.662 | 1.424 | 1.819 | 0.574 | 1.477
B12 | 2.218 | 2.770 | 3.184 | 1.761 | 2.540 | 0.722 | 1.738
B13 | 0.981 | 2.415 | 2.519 | 0.910 | 1.467 | 0.239 | 0.585
